Source: publication PMC9595563

Target: SARS-CoV-2 spike protein (Wuhan-Hu-1) with C-terminal histidine, coated in the ELISA of Fig 2C (SARS-CoV-2) (UniProt P0DTC2)
Test: ELISA

LRRC15-Fc, sequence (Q8TF66 22-538): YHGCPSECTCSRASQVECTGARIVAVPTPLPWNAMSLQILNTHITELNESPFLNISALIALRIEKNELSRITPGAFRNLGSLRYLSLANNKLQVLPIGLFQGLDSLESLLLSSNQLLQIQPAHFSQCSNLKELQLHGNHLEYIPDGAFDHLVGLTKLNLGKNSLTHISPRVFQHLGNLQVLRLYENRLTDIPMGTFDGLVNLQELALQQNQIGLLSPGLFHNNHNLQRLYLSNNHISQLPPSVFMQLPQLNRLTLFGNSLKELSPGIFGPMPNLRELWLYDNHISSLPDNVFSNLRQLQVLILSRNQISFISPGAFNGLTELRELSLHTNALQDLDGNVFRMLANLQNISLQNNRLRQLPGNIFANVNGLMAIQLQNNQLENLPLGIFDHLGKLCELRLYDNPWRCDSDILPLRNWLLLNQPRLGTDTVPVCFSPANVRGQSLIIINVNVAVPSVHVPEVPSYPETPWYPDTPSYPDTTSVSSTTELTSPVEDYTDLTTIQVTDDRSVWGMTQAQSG

LRRC15-Fc (from UniProt Q8TF66) (Fc fusion)
Kd: 109 nM
